Measured values reported in article PMC3154745.

T1: Full length HP1a, pET11a construct (AUC) (D. melanogaster), P05205
T1 chain: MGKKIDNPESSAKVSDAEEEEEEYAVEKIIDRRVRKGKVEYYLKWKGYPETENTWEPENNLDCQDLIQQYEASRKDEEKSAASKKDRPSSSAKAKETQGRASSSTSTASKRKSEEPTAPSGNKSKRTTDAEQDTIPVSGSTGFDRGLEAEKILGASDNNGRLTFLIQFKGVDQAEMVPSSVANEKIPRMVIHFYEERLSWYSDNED


Assays:
[1] = biological target: PIWI peptide with HP2 pentamer, N-terminal fluorescein (D. melanogaster); test: fluorescence polarisation
[2] = biological target: HP2 peptide with PIWI pentamer, N-terminal fluorescein (D. melanogaster); test: fluorescence polarisation
[3] = biological target: T1, Full length HP1a, pET11a construct …; test: AUC; details: remark: other sources report otherwise

Binder | Kd [1] | Kd [2] | Kd [3]
HP1a-CSD (residues 131-206), wild type (domain or fragment) EQDTIPVSGSTGFDRGLEAEKILGASDNNGRLTFLIQFKGVDQAEMVPSSVANEKIPRMVIHFYEERLSWYSDNED | 21300 nM | 990 nM | –
Full length HP1a, pET11a construct (AUC), P05205 1-206 (natural protein) MGKKIDNPESSAKVSDAEEEEEEYAVEKIIDRRVRKGKVEYYLKWKGYPETENTWEPENNLDCQDLIQQYEASRKDEEKSAASKKDRPSSSAKAKETQGRASSSTSTASKRKSEEPTAPSGNKSKRTTDAEQDTIPVSGSTGFDRGLEAEKILGASDNNGRLTFLIQFKGVDQAEMVPSSVANEKIPRMVIHFYEERLSWYSDNED | – | – | 1400 nM
